According to publication PMC8647145, “Foxd3 controls heterochromatin‐mediated repression of repeat elements and 2‐cell state transcription”:
Residue numbers refer to the chain shown, from its start.

T1: GST-FOXD3 (mouse, UniProt Q61060 1-465)
T1 sequence: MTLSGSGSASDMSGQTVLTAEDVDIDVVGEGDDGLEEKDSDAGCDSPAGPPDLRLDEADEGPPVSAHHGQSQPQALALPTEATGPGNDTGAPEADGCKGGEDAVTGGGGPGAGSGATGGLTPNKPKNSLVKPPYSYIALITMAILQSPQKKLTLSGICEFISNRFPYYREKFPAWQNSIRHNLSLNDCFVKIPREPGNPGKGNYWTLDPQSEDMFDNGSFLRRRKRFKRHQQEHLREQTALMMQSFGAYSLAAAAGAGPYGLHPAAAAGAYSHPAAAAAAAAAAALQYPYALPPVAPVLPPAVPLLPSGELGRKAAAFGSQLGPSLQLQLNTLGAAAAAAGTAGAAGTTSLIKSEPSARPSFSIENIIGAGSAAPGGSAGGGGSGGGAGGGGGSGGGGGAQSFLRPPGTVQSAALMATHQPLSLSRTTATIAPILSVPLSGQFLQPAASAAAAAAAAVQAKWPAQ

B1: MSR_MUT (dsDNA)
DNA 1: CTGAAAATCATGGAAAATGCGTGACGGCGACTTGA
DNA 2: TCAAGTCGCCGTCACGCATTTTCCATGATTTTCAG
B2: MERVL-LTR_MUT (dsDNA)
DNA 1: CAGCTGTGTTCTAAGTGGTACACGCCTAATCTGCG
DNA 2: CGCAGATTAGGCGTGTACCACTTAGAACACAGCTG
B3: L1MdA (dsDNA)
DNA 1: GTACATAGGGAAGCAGGCTACCCGGGCCTGATCTG
DNA 2: CAGATCAGGCCCGGGTAGCCTGCTTCCCTATGTAC
B4: Hprt (dsDNA)
DNA 1: AGGGCGGGCCGAGGGGCGGAGCCTGGCCGGCAGCG
DNA 2: CGCTGCCGGCCAGGCTCCGCCCCTCGGCCCGCCCT
B5: Sox15 (dsDNA)
DNA 1: CAGAGGCTACTCTGAAACAAATAAAGAGATATAAA
DNA 2: TTTATATCTCTTTATTTGTTTCAGAGTAGCCTCTG
B6: MERVL-int (dsDNA)
DNA 1: CCATCTTTTGATAAACACCTCAGCCAACCATTCAA
DNA 2: TTGAATGGTTGGCTGAGGTGTTTATCAAAAGATGG
B7: MERVL-LTR (dsDNA)
DNA 1: B2 DNA 1 with C21A, G24A, C25A, C26A
DNA 2: B2 DNA 2 with G10T, G11T, C12T, G15T
B8: MSR (dsDNA)
DNA 1: CTGAAAATCATGGAAAATGAGAAACATCCACTTGA
DNA 2: TCAAGTGGATGTTTCTCATTTTCCATGATTTTCAG

Each binder was assayed against T1, GST-FOXD3 (assay: EMSA; up to 2.5 uM protein; EMSA: 50 nM DNA, 20 mM Tris-HCl pH 8.0, 100 mM KCl, 3 mM MgCl2, 1 mM EDTA, 5% glycerol, 0.05% NP-40, 2 mM DTT, 50 ng/ml yeast tRNA, 2.5 ng/ml BSA, 4 C, 1 h). Details: protein: recombinant; tags: N-terminal GST (pGEX-6P1); label: 5'-Cy5; blunt.
B1: no binding.
B2: no binding.
B3: no binding.
B4: no binding.

Each binder was assayed against T1, GST-FOXD3 (assay: EMSA; EMSA: 50 nM DNA, 20 mM Tris-HCl pH 8.0, 100 mM KCl, 3 mM MgCl2, 1 mM EDTA, 5% glycerol, 0.05% NP-40, 2 mM DTT, 50 ng/ml yeast tRNA, 2.5 ng/ml BSA, 4 C, 1 h). Details: protein: recombinant; tags: N-terminal GST (pGEX-6P1); label: 5'-Cy5; blunt.
B5: binds.
B6: binds.
B7: binds.
B8: binds.
